This note sets out measurements from patent US20210095028A1 (NANJING LEGEND BIOTECH, published 2021).

The target of assay [1] is T1, Human TIGIT protein with HIS tag (human, UniProt Q495A1 22-141).
T1 construct: A soluble analyte is probably only the extracellular part; also called human TIGIT recombinant protein; not shown: HIS tag
T1 sequence: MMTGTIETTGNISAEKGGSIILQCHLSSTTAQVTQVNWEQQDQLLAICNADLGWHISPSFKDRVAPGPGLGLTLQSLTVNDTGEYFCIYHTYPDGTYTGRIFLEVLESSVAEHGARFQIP
Kind of assay: SPR Biacore T200; antibody Fc-captured, TIGIT-His analyte. The method, then:
Binding kinetics of the chimeric anti-human TIGIT monoclonal antibodies and the humanized anti-human TIGIT monoclonal antibodies to human TIGIT were determined using a Surface Plasmon Resonance (SPR) biosensor, BIACORE® T200 (GE Healthcare). Different concentrations of the chimeric anti-human TIGIT monoclonal antibodies or humanized anti-human TIGIT monoclonal antibodies were prepared starting at 50 nM with a 3-fold serial dilution. Each chimeric anti-human TIGIT monoclonal antibody or each humanized anti-human TIGIT monoclonal antibody was immobilized on the sensor chip through the Fc capture method. Human TIGIT protein with a HIS tag was used as the analyte. The dissociation (kd) and association (kₐ) rate constants were obtained using the BIACORE® T200 evaluation software. The apparent equilibrium dissociation constants (KD) were calculated from the ratio of kd over kₐ.
On the technique in general: SPR reads the build-up and loss of mass on a sensor chip optically.

Assay [2] deals with T2, human TIGIT over-expressed on cells (human, UniProt Q495A1 22-244).
T2 sequence: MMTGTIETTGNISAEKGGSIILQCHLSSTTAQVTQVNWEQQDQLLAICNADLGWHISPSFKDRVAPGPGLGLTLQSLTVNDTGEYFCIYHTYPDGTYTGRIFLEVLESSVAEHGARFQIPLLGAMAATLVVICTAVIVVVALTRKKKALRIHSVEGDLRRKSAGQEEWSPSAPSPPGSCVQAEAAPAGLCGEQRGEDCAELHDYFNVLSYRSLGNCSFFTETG
The assay is described as follows: cell-based or functional assay.

The target in assay [3] is T2, human TIGIT over-expressed on cells. Kind of assay: FACS, CHO-K1 cells over-expressing human TIGIT. How it is done: (§1) Binding affinities of the chimeric anti-human TIGIT monoclonal antibodies and the humanized anti-human TIGIT monoclonal antibodies to human or cynomolgus TIGIT over-expressed on CHO-K1 cells were determined using a fluorescence-activated cell sorting (FACS)-based assay. […] The mixture was equilibrated for 30 minutes at room temperature and washed three times with FACS buffer (PBS containing 1% BSA). iFluor labeled goat anti-mouse IgG as the secondary antibody was added and incubated at room temperature for 45 min. Finally, the cells were washed 3 time with PBS, and the signal was read by FACS BD Calibur. Data was analyzed with PRISM™ (GraphPad Software, San Diego, Calif.) using non-linear regression and EC₅₀ values were calculated.
A general note: A flow cytometer gives signals particle by particle.

Assay [4] has the same target. Kind of assay: competition FACS, CHO cells expressing human TIGIT; competitor PVR recombinant protein. The method, then:
(§2) To assess the competitive binding on human TIGIT between the chimeric anti-human TIGIT monoclonal antibodies or the humanized anti-human TIGIT monoclonal antibodies and PVR, the chimeric anti-human TIGIT monoclonal antibody or the humanized anti-human TIGIT monoclonal antibody samples were prepared (starting at 300 nM, ≤3-fold serial dilution with 10 concentrations). CHO cells expressing human TIGIT were dissociated from adherent culture flasks and mixed with varying concentrations of each chimeric anti-human TIGIT monoclonal antibody or the humanized anti-human TIGIT monoclonal antibody and 5 μg/ml […] fusion protein having a biotin label. The mixture was equilibrated for 30 minutes at room temperature and washed three times with FACS buffer (PBS containing 1% BSA). PE/Cy5 Streptavidin secondary antibody was then added to the mixtures and incubated for 15 minutes at room temperature. Subsequently, the cells were washed with FACS buffer and analyzed by flow cytometry. Data was analyzed with PRISM™ (GraphPad Software, San Diego, Calif.) using non-linear regression, and IC₅₀ values were calculated (FIG. 7 and Table 13).

Assay [5] has as its target T3, cynomolgus TIGIT over-expressed on CHO-K1 cells (cynomolgus, UniProt A0A7N9I9V4 89-312).
T3 construct: whole, on cells; also called CHO-K1/cynomolgus TIGIT cells
The assay is described as follows: FACS, CHO-K1 cells over-expressing cynomolgus TIGIT. How it is done: as §1

For assay [6], the target named is T2, human TIGIT over-expressed on cells. Kind of assay: competition FACS, CHO cells expressing human TIGIT; competitor PVR recombinant protein (column headed EC50, text says IC50). How it is done:
as §2

T3 sequence (A0A7N9I9V4 entry or part of it): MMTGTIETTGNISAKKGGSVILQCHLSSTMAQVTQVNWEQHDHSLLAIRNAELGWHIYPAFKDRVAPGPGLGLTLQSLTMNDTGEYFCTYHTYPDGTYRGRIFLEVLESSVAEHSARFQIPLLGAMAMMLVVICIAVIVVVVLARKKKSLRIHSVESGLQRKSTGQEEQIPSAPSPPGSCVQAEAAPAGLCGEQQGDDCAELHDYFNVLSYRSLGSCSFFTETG

B1: 64G1E9B4 chimeric (antibody, V domains shown)
VH: EVQLQQSGPELVKPGASVKISCKTSGYTFTEHVIHWVKQSHGKSLEWIGGFNPNHDGTIYNQIFRGKATLTVDKSSSTAYMELRSLTSEDSAVYFCTRAAKLLFAMDYWGQGTSVTVSS
VL: DIVMTQSHKFMSTSIGDRVSITCKASQHVSNAVVWYQQKPGQSPKLLIYSPSYRFTGVPDRFTGSGSGTDFTFTISSVQAEDLAVYYCQQHYSTPWTFGGGTKLEIK
notes: also called 64G1 Chimeric
Regarding B1, in assay [1], binding was characterised by a dissociation constant (Kd) of 0.07 nM, the off-rate constant (koff) was 6.4e-05 s⁻¹ and the kon was found to be 910000 M⁻¹ s⁻¹. Besides, in assay [2], the “IL-2 secretion in T cell activation, Bottom (best-fit)” value (from here on “IL-2 secretion … Bottom (best-fit)”) came out at 204; the “IL-2 secretion in T cell activation, EC50” value (shortened to “IL-2 secretion … EC50”) is 0.66 nM; the “IL-2 secretion in T cell activation, Top (best-fit)” value (shortened to “IL-2 secretion … Top (best-fit)”) was 462. Besides, in assay [3], the “Bottom (best-fit)” value is 3600, the concentration giving a half-maximal response (EC50) was 0.47 nM and the “Top (best-fit)” value worked out at 23400. Further, in assay [4], the “Bottom (best-fit)” value was 197 and the “Top (best-fit)” value was 772. Also, in assay [5], the “Bottom (best-fit)” value came to 3920, the EC50 amounted to 1.33 nM and the “Top (best-fit)” value was found to be 25600. In addition, the concentration for half-maximal inhibition (IC50) in assay [6] came out at 0.51 nM.

B2: 100C4E7D11 chimeric (antibody, V domains shown)
VH: EVMLVESGGGLVKPGGSLKLSCAASGFTFSFYTMSWVRQTPEKRLEWVATISSGGGSTYYSDSVKGRFTISRDNAKNNLYLQMTSLRSEDTALYYCSRSLPVDYWGQGTTLTVSS
VL: QIVLTQSPAIMSASLGERVTMTCTASSSVSSTYLHWYQQKPGSSPKLWIYSTSNLASGVPARFSGSGSGTSYSLTISSMEAEDAATYYCHLYHHSPYTFGGGTKLEIK
notes: also called 100C4 Chimeric
In assay [1], B2 registered a Kd of 0.17 nM, an off-rate (koff) of 0.00016 s⁻¹ and an association rate constant (kon) of 910000 M⁻¹ s⁻¹. For the same molecule, in assay [2], the “IL-2 secretion … Bottom (best-fit)” value was 247; the “IL-2 secretion … EC50” value worked out at 2.14 nM; the “IL-2 secretion … Top (best-fit)” value is 419. In assay [3], the “Bottom (best-fit)” value was determined as 4160, the concentration giving a half-maximal response (EC50) is 0.58 nM and the “Top (best-fit)” value is 25600. In assay [4], the “Bottom (best-fit)” value stood at 170 and the “Top (best-fit)” value is 678. In assay [5], the “Bottom (best-fit)” value stood at 4880, a half-maximal effect (EC50) was put at 1.03 nM and the “Top (best-fit)” value is 23700. In addition, the IC50 in assay [6] worked out at 0.49 nM.

B3: 100C4E7D11VH1_VL1 (antibody, V domains shown)
VH: EVQLVESGGGLVKPGGSLRLSCAASGFTFSFYTMSWVRQAPGKGLEWVSTISSGGGSTYYSDSVKGRFTISRDNAKNSLYLQMNSLRAEDTAVYYCARSLPVDYWGQGTTVTVSS
VL: EIVLTQSPGTLSLSPGERATLSCTASSSVSSTYLHWYQQKPGQAPRLLIYSTSNLASGIPDRFSGSGSGTDFTLTISRLEPEDFAVYYCHLYHHSPYTFGGGTKVEIK
notes: Humanized antibody, variable domains fused with the constant region of human IgG1; also called 100C4VH1_VL1
Regarding B3, in assay [1], binding was characterised by a dissociation constant (Kd) of 0.57 nM, the koff worked out at 0.00035 s⁻¹ and the kon was 610000 M⁻¹ s⁻¹. Further, in assay [2], the “IL-2 secretion … Bottom (best-fit)” value is 217; the “IL-2 secretion … EC50” value stood at 5.21 nM; the “IL-2 secretion … Top (best-fit)” value worked out at 435. Further, in assay [3], the “Bottom (best-fit)” value came to 4110, the response was half-maximal at 1.15 nM (EC50) and the “Top (best-fit)” value is 25200. In assay [4], the “Bottom (best-fit)” value worked out at 150 and the “Top (best-fit)” value came to 755. In assay [5], the “Bottom (best-fit)” value amounted to 2830, a half-maximal response (EC50) required 2.85 nM and the “Top (best-fit)” value is 29800. In addition, in assay [6], the IC50 was 1.29 nM.

One may read the Kd as the equilibrium constant for the complex coming apart. Low values mean tighter binding, high ones weaker binding. Usually koff stands for the first-order rate constant of dissociation. A higher koff goes with a short-lived complex. As a reminder, the kon is a measure of how fast the partners come together. Broadly, the EC50 is the midpoint of the concentration-response curve. What is called IC50 is the concentration that inhibits the measured activity by half.
